{"source": "the RNAGym collection of RNA variant scans (doi:10.1073/pnas.2313332121)", "parents": {"B1": {"name": "TPR 5TU (parent)", "chain": "GGAUCUUCUCGAUCUAACAAAAAAGACAAAUCUGCCACAAAGCUUGAGAGCAUCUUCGGAUGCAGAGGCGGCAGCCUUCGGUGGCGCGAUAGCGCCAACGUUCUCAACUAUGACACGCAAAACGCGUGCUCCGUUGAAUGGAGUUUAUCAUG"}}, "note": "This sample holds only a part of the variants without activity."}
{"variants_of": "B1", "experiment": "polymerase ribozyme fitness, log enrichment relative to wild type (log ratio); higher = more active; in vitro selection for triplet polymerase activity", "how_it_was_run": "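A single round of triplicate in vitro selection, including frozen incubation at −7 °C, was applied to PCR-built, transcribed mutant libraries of each subunit of a heterodimeric triplet polymerase ribozyme. Illumina sequencing of input and output libraries retained genotypes with ≥10 input reads and ≥1 read per output. Fitness is the base-2 logarithm of genotype enrichment divided by wild-type enrichment, from inverse-variance-weighted replicate averages.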"}
{"variant": "U6C A60U G86A", "polymerase ribozyme fitness (log ratio)": -3.49}
{"variant": "U6A C8A A12G C43U A64C G86C C87A", "polymerase ribozyme fitness (log ratio)": "≤ -4.2"}
{"variant": "U6C C105G U144C G152A", "polymerase ribozyme fitness (log ratio)": -3.94}
{"variant": "U6C A24U A40C U56A A73U C76G C129U", "polymerase ribozyme fitness (log ratio)": "≤ -4.2"}
{"variant": "C5G U9G G86A", "polymerase ribozyme fitness (log ratio)": -4}
{"variant": "C5G C85A", "polymerase ribozyme fitness (log ratio)": -1.7}
{"variant": "C5G A120C", "polymerase ribozyme fitness (log ratio)": -0.488}
{"variant": "C5U C96U", "polymerase ribozyme fitness (log ratio)": 0.36}
{"variant": "C5G U53A", "polymerase ribozyme fitness (log ratio)": -1.8}
{"variant": "U6C A23G A91U A106G", "polymerase ribozyme fitness (log ratio)": "≤ -4.2"}
{"variant": "U6C U82A C99U G136U", "polymerase ribozyme fitness (log ratio)": -3.43}
{"variant": "C5U U13A C14A U53A U55A C76A A120U G124C", "polymerase ribozyme fitness (log ratio)": "≤ -4.2"}
{"variant": "U6A U90G C95U U109G A137C", "polymerase ribozyme fitness (log ratio)": "≤ -4.2"}
{"variant": "C5U A40G G84A A97G", "polymerase ribozyme fitness (log ratio)": -3.39}
{"variant": "C5U G84A A150C", "polymerase ribozyme fitness (log ratio)": "≤ -4.2"}
{"variant": "U6A A12C A16U A19U C75G G84C A97G A98U U102A G124U", "polymerase ribozyme fitness (log ratio)": "≤ -4.2"}
{"variant": "C5U A21U", "polymerase ribozyme fitness (log ratio)": 1.4}
{"variant": "C5G U33C G50C C57U G71A A73U A91U", "polymerase ribozyme fitness (log ratio)": "≤ -4.2"}
{"variant": "C5U U13A C57G G141U", "polymerase ribozyme fitness (log ratio)": -1.34}
{"variant": "U6A C54U G58C C85A U134C", "polymerase ribozyme fitness (log ratio)": -1.4}
{"variant": "C5U G84A", "polymerase ribozyme fitness (log ratio)": 0.439}
{"variant": "C5G C54U U56A C99U", "polymerase ribozyme fitness (log ratio)": -1.99}
{"variant": "U6A U56A", "polymerase ribozyme fitness (log ratio)": -0.431}
{"variant": "U6A A12U U53A C114U", "polymerase ribozyme fitness (log ratio)": -3.59}
{"variant": "C5G U56A G84U U144A", "polymerase ribozyme fitness (log ratio)": -3.4}
{"variant": "U6A C14U A91C A150U", "polymerase ribozyme fitness (log ratio)": "≤ -4.2"}
{"variant": "U6A G88C C116U", "polymerase ribozyme fitness (log ratio)": "≤ -4.2"}
{"variant": "U6C U61A G68C G84A G88U A121G G124A", "polymerase ribozyme fitness (log ratio)": "≤ -4.2"}
{"variant": "U6C A47C C85A", "polymerase ribozyme fitness (log ratio)": -3.96}
{"variant": "C5U C87U", "polymerase ribozyme fitness (log ratio)": 0.457}
{"variant": "U6C C63U A138G", "polymerase ribozyme fitness (log ratio)": -4.08}
{"variant": "U6C C14U U44A G68U G92U A98G C99G", "polymerase ribozyme fitness (log ratio)": "≤ -4.2"}
{"variant": "U6C A19C A26G C85G C108A", "polymerase ribozyme fitness (log ratio)": "≤ -4.2"}
{"variant": "C5U U33A G88U C96U U127C", "polymerase ribozyme fitness (log ratio)": "≤ -4.2"}
{"variant": "U6C U13C C14U G34A G80C A91G", "polymerase ribozyme fitness (log ratio)": "≤ -4.2"}
{"variant": "C5G C14G G48C C57A A73C C87U C118U A121G C123U G140C", "polymerase ribozyme fitness (log ratio)": "≤ -4.2"}
{"variant": "C5G G84A", "polymerase ribozyme fitness (log ratio)": -0.0388}
{"variant": "U6G A12U A22U A64U G88C C95U", "polymerase ribozyme fitness (log ratio)": "≤ -4.2"}
{"variant": "C5G C27U C38G G81A U104C A115C", "polymerase ribozyme fitness (log ratio)": "≤ -4.2"}
{"variant": "C5G U9C A97G G141C", "polymerase ribozyme fitness (log ratio)": -3.27}
{"variant": "U6A A16C U56A U61A C95U C114U", "polymerase ribozyme fitness (log ratio)": -3.64}
{"variant": "C5U G46U C85G", "polymerase ribozyme fitness (log ratio)": -2.05}
{"variant": "C5G C8U A24G G34A A41G G70C A107G G124U U151G", "polymerase ribozyme fitness (log ratio)": "≤ -4.2"}
{"variant": "C5U A23U C32U G74U G83A C114U G136U C149U", "polymerase ribozyme fitness (log ratio)": "≤ -4.2"}
{"variant": "C5G U9C A16C A28G A30U C32G C35A G59U G92U C105U G143C", "polymerase ribozyme fitness (log ratio)": "≤ -4.2"}
{"variant": "U6C C129G", "polymerase ribozyme fitness (log ratio)": -3.13}
{"variant": "U6C U56C A89C A121U", "polymerase ribozyme fitness (log ratio)": -2.59}
{"variant": "U6C C54U C76U", "polymerase ribozyme fitness (log ratio)": -2.15}
{"variant": "C5G U13C C18U G46U C108U A122G", "polymerase ribozyme fitness (log ratio)": "≤ -4.2"}
{"variant": "U6A A29G G74A C103G A107G A122U", "polymerase ribozyme fitness (log ratio)": "≤ -4.2"}
{"variant": "C5G U6G C38U A41U A47U G86A A91C", "polymerase ribozyme fitness (log ratio)": "≤ -4.2"}
{"variant": "C5G G46U G81U C87U G88A A98U C125U", "polymerase ribozyme fitness (log ratio)": "≤ -4.2"}
{"variant": "U6A A12C G58U A91C A98U C103G C131U", "polymerase ribozyme fitness (log ratio)": "≤ -4.2"}
{"variant": "C5U U13A A23G C36U G46A A97U C103U", "polymerase ribozyme fitness (log ratio)": "≤ -4.2"}
{"variant": "U6A C85U G140C", "polymerase ribozyme fitness (log ratio)": -3.99}
{"variant": "U6G A19U G50C G88U C99G", "polymerase ribozyme fitness (log ratio)": "≤ -4.2"}
{"variant": "U6C G11A A37G A52G G86A G100A", "polymerase ribozyme fitness (log ratio)": "≤ -4.2"}
{"variant": "U6A G34A C69U A73G U77A C79A C87A C96U C105A A107U G136A U139A", "polymerase ribozyme fitness (log ratio)": "≤ -4.2"}
{"variant": "C5G G71U", "polymerase ribozyme fitness (log ratio)": -3.09}
{"variant": "C5G U9C A16C A28G A30U C32G C35A G59U G92U C105U", "polymerase ribozyme fitness (log ratio)": "≤ -4.2"}
{"variant": "C5G C79A C96A", "polymerase ribozyme fitness (log ratio)": "≤ -4.2"}
{"variant": "C5G U55A C93U C118A", "polymerase ribozyme fitness (log ratio)": -3.5}
{"variant": "U6A A22U G59U A73U U109G", "polymerase ribozyme fitness (log ratio)": -3.52}
{"variant": "C5U C85G U104C", "polymerase ribozyme fitness (log ratio)": -3.03}
{"variant": "C5U A28U C51G A52C G67A G94C", "polymerase ribozyme fitness (log ratio)": "≤ -4.2"}
{"variant": "C5U A29U G62A G67C A142U", "polymerase ribozyme fitness (log ratio)": "≤ -4.2"}
{"variant": "C5G U144G", "polymerase ribozyme fitness (log ratio)": 0.355}
{"variant": "C5U A12U A30C G59C C125G G126U", "polymerase ribozyme fitness (log ratio)": "≤ -4.2"}
{"variant": "C5U C8G U9G U61G U77A G84A U146C", "polymerase ribozyme fitness (log ratio)": "≤ -4.2"}
{"variant": "U6A C14A C32U G74A A138C", "polymerase ribozyme fitness (log ratio)": "≤ -4.2"}
{"variant": "U6C C87U", "polymerase ribozyme fitness (log ratio)": -1.52}
{"variant": "U6C C87A", "polymerase ribozyme fitness (log ratio)": "≤ -4.2"}
{"variant": "U6C G48A A106G", "polymerase ribozyme fitness (log ratio)": -3.13}
{"variant": "C5U U82A C85A C99A U101G G140C", "polymerase ribozyme fitness (log ratio)": "≤ -4.2"}
{"variant": "U6A C27U A41C U55A G62C G71C C85A G143U", "polymerase ribozyme fitness (log ratio)": "≤ -4.2"}
{"variant": "U6A A26C A122C", "polymerase ribozyme fitness (log ratio)": -2.04}
{"variant": "C5G G25C A28C C57G G58A C76G G143U", "polymerase ribozyme fitness (log ratio)": "≤ -4.2"}
{"variant": "C5U C38U C63A U77A C95U U127G G136U U144C", "polymerase ribozyme fitness (log ratio)": "≤ -4.2"}
{"variant": "C5G U13A A29G C51U G94C C114G G140C G141C U144A", "polymerase ribozyme fitness (log ratio)": "≤ -4.2"}
{"variant": "U6A G86A C87G", "polymerase ribozyme fitness (log ratio)": "≤ -4.2"}
{"variant": "U6A C51U A52U U56A G83U G84A C114U", "polymerase ribozyme fitness (log ratio)": "≤ -4.2"}
{"variant": "C5G U13A A23U A52C C87A C105U A107G", "polymerase ribozyme fitness (log ratio)": "≤ -4.2"}
{"variant": "C5G U55G C85U C99A", "polymerase ribozyme fitness (log ratio)": -2.86}
{"variant": "C5U U15A A17G C18U G42A U53A U55A A60C G68C C79U A91C A97G", "polymerase ribozyme fitness (log ratio)": "≤ -4.2"}
